Laboratory results as given in publication PMC2917178 (Biochemistry, 2010).
Residue numbers refer to the chain shown, from its start. In names and notes the source's numbering stands. Several values for one entry are separate records, joined by “and”; a condition that tells them apart may be missing. Identical values can stand only once.

Tests used:
Esa1 = settings: E338Q vs wildtype Esa1, ref [35]; cited from earlier work
[1] = target: Rtt109 D288N (with Vps75) (Saccharomyces cerevisiae, UniProt P53853+Q07794, D288N); format: biochemical, yeast (Saccharomyces cerevisiae)
Chain of Rtt109 D288N (with Vps75) (P53853 whole entry, one chain of several): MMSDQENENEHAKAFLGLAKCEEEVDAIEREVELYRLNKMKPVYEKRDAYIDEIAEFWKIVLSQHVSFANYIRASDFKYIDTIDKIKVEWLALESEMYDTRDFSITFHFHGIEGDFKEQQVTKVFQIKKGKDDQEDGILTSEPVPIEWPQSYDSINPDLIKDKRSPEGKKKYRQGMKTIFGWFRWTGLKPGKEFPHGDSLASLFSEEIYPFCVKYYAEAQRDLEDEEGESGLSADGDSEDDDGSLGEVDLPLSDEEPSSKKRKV

[2] = target: Rtt109 D287N (with Vps75) (Saccharomyces cerevisiae, UniProt P53853+Q07794, D287N); format: biochemical, yeast (Saccharomyces cerevisiae); settings: H3 peptide saturation
Chain of Rtt109 D287N (with Vps75) (P53853 whole entry): as the sequence (P53853 whole entry, one chain of several) above
Chain of Rtt109 D287N (with Vps75) (Q07794 whole entry D287N): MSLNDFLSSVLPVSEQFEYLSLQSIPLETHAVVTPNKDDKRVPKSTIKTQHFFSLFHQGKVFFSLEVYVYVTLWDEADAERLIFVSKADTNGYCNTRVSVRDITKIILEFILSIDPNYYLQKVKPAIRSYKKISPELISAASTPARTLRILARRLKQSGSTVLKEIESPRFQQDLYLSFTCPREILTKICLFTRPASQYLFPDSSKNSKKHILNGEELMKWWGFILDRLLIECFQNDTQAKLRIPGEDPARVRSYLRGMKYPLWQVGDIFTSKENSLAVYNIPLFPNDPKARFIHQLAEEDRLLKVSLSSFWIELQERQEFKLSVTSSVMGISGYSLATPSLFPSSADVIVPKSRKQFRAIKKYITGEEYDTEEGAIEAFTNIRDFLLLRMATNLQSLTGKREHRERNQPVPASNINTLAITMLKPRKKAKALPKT

[3] = target: T1, Rtt109 D287A/D288A (with Vps75) (Saccharomyces cerevisiae, UniProt P53853+Q07794, D287A/D288A); format: biochemical, yeast (Saccharomyces cerevisiae); settings: H3 peptide saturation
T1 sequence (Q07794 whole entry D287A/D288A): as the sequence (Q07794 whole entry D287N) above, with N287A, D288A counted along it
T1 sequence (P53853 whole entry): as the sequence (P53853 whole entry, one chain of several) above

[4] = target: T1, Rtt109 D287A/D288A (with Vps75); format: biochemical, yeast (Saccharomyces cerevisiae)

B1: E338Q: Esa1 with mutation of the general base catalyst Glu-338 (protein, UniProt Q08649 1-445, looked up, variant E338Q)
Histone acetyltransferase ESA1: MSHDGKEEPGIAKKINSVDDIIIKCQCWVQKNDEERLAEILSINTRKAPPKFYVHYVNYNKRLDEWITTDRINLDKEVLYPKLKATDEDNKKQKKKKATNTSETPQDSLQDGVDGFSRENTDVMDLDNLNVQGIKDENISHEDEIKKLRTSGSMTQNPHEVARVRNLNRIIMGKYEIEPWYFSPYPIELTDEDFIYIDDFTLQYFGSKKQYERYRKKCTLRHPPGNEIYRDDYVSFFEIDGRKQRTWCRNLCLLSKLFLDHKTLYYDVDPFLFYCMTRRDELGHHLVGYFSKEKESADGYNVACILTLPQYQRMGYGKLLIEFSYELSKKENKVGSPQKPLSDLGLLSYRAYWSDTLITLLVEHQKEITIDEISSMTSMTTTDILHTAKTLNILRYYKGQHIIFLNEDILDRYNRLKAKKRRTIDPNRLIWKPPVFTASQLRFAW
- upward shift of pKa of ionizable group (Esa1): 1.4 pH-units

B2: D288N: single point mutant of Rtt109 (protein, UniProt Q07794 1-436, looked up, variant D288N)
Histone acetyltransferase …: MSLNDFLSSVLPVSEQFEYLSLQSIPLETHAVVTPNKDDKRVPKSTIKTQHFFSLFHQGKVFFSLEVYVYVTLWDEADAERLIFVSKADTNGYCNTRVSVRDITKIILEFILSIDPNYYLQKVKPAIRSYKKISPELISAASTPARTLRILARRLKQSGSTVLKEIESPRFQQDLYLSFTCPREILTKICLFTRPASQYLFPDSSKNSKKHILNGEELMKWWGFILDRLLIECFQNDTQAKLRIPGEDPARVRSYLRGMKYPLWQVGDIFTSKENSLAVYNIPLFPDNPKARFIHQLAEEDRLLKVSLSSFWIELQERQEFKLSVTSSVMGISGYSLATPSLFPSSADVIVPKSRKQFRAIKKYITGEEYDTEEGAIEAFTNIRDFLLLRMATNLQSLTGKREHRERNQPVPASNINTLAITMLKPRKKAKALPKT
- decrease in kcat/Km for AcCoA ([1]; AcCoA): 1000 fold
- decrease of kcat/Km for AcCoA versus wildtype ([1]; AcCoA): ~3 orders of magnitude
- increase in Km for AcCoA versus wildtype ([1]; AcCoA saturation): ~16 fold
- decrease of kcat versus wildtype ([1]; H3 peptide saturation): ~50 fold and 50-100 fold

B3: D287N: single point mutant of Rtt109 (protein, UniProt Q07794 1-436, looked up, variant D287N)
Histone acetyltransferase …: B2 Histone acetyltransferase … with D287N, N288D
- decrease in activity (kcat) versus wildtype [2]: ~10 fold

B4: D287A/D288A: double point mutant of Rtt109 (protein, UniProt Q07794 1-436, looked up, variant D287A D288A)
Histone acetyltransferase …: B2 Histone acetyltransferase … with D287A, N288A
- decrease of kcat versus wildtype [3]: ~100 fold and 50-100 fold
- downward shift of apparent pKa versus wildtype ([4]; D287A/D288A kcat pH profile): ~1 pH unit
- pKa from kcat pH profile ([4]; D287A/D288A, ATE buffer, pH 7-9, 25 °C, 400 μM H3 peptide, 60 μM AcCoA, twice in duplicate, Eq. 11): 7.5 ± 0.1
